According to PMC9150817:
Where two headings read alike, the source gives them in different places.

Key:
[1] = target: T1, Hfq wild type (recombinant, full-length, non-tagged) (Escherichia coli, UniProt P0A6X3 1-102); experiment: 2D-PAGE/immunoblot of reconstituted complex
[2] = target: T1, Hfq wild type (recombinant, …); experiment: 2D-PAGE/immunoblot of reconstituted complex; remark: listed apart in the source

T1 sequence (P0A6X3 whole entry): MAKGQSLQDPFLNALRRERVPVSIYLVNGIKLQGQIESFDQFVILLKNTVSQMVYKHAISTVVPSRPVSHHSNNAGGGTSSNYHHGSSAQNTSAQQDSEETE

Binder	binding result [1]	binding result [2]
UUUUUUUUUUUUUUUUUUUU (ssRNA) [(U)20]	binds	–
AAAAAAAAAAAAAAAAAAAA (ssRNA) [(rA)20]	binds	–
AAAAA (ssRNA) [(rA)5]	–	binds
